Experimental data reported in the DeepSol protein solubility set.

Experiment: soluble on expression in E. coli; label from the status in PepcDB or PDB records

Soluble on expression in E. coli, not soluble:
MTLPTTIYSFPAYLSRFSSTDKPVKLKFHQYARATLLSNRGRDHNCDGRRTVEIHKLDLSDWQAFNKLATRCNAYDGITMNGDNSFGWNHEATLDNIHAQKYNKAYAGARLTAELKYLLQDVESFEPNSKYTIHEVVLGPGYGTPDYTGQTIGYVVTLPAQMPNCWSSELPTIDLYIDQLRTVTGVSNALGFIIAALLNAYSDLPHDLKIGLRSLSSSAAIYSGLGFERVPQERDISCARMYLTPANHPDLWTQENGEWIYLRN
MAQEFSGDVFVISVAAELAGMHAQTLRTYDRLGLVTPQRTRGGGRRYSRDDVELLRTVQHLSQVEGVNLAGIKSIIELKKENAQLRKELAAARAEADVLKNRGARPRGEIVHVPRSTAVVMWQPRRSSRQHD
MHGESPIKRRESRKIWVGSVPVGGDAPIAVQSMTNSDTNDVAATVAQINRLEAAGVDIVRISVPDMDAAEAFGRIKQLVKVPLVADIHFDYRIALRVAELGVDCLRINPGNIGREDRVRAVVDAARDRGIPIRIGVNAGSLEKDLQKKYGEPTPEALVESALRHVEHLERLNFKDFKVSVKASDVFMAVAAYRLLAKQIVQPLHLGITEAGGLRSGTVKSAVGLGMLLAEGIGDTIRISLAADPVEEVKVGYDILKSLRLRSRGINFIACPSCSRQNFDVVKTMNELEGRLEDLLVPLDVAVIGCVVNGPGEAKEAHIGLTGGTPNLIYIDGKPAQKLTNDNLVDELERLIREKAAEKTAADASVIVRGLEHHHHHH
MVTKAKQIREKESKVAEFKYKNLTQEEQDKLDAATFRRLLAHLDANKDVQNIDLMILAGFCRNCFSKWYKAEAENLSLDLDIDDARERVYGMTYDEWKQNHQPAATPEQLAAFEARQKK
MPYEADDYLSRHFQTSGTDLARKVDELAALAAPGDSPNLALYREMLFTVTRMAQADRNRWDAKIMLQTLREMEHAFSVLEQFKRRRKVTVFGSARTPVEHPVYALARKLGEELARYDLMVITGAGGGIMAAAHEGAGLENSLGFNITLPFEQHANHTVDGSGNLLSFHFFFLRKLFFVKEADALVLCPGGFGTLDEALEVLTLVQTGKSPLVPIVLLDQPGGRYWEHALEFMQEQLLENHYILPADMRLMRLVHSAEDAVKEIAQFYRNFHSSRWLKGTFVIRLNHALNEAALAHLHEHFASLCLSGGFQQQAYSEQEQDEPEFRNLTRLAFVFNGRDQGRLRELLDYINLPENWD
MGSDKIHHHHHHMSINDKEKKKLQRAILIIACEVARICKKNDIPYFINGGTQIGAVRHNGFIPWDDDFDIGFKRKDYEKFIKACDKDLNKDKFFLQTPETEEYYAFDFAKLQLKGTEIIEDFSKNVKIQHGIFVDLFPHDNIPDCKLKRKLFLFKNHLMKNILWVKCGYGEKKHKSKLSYKMVKFVSKFFSIKQIKQSRSKLLDKYNNTKTTQCIISDYPNDLIMNSWLDDLQLFRFEEVEFYGIKQYDAYLKSLYGDYMSLPPESERIVHSNYKIDFGLYDGLLEDMLYGNNI
MGSDKIHHHHHHGEYNKLLKSTDYEYKYEAAKNYFAKGQYNRSATLLNELITILKGTDKAEESLYMLGMSYYNQKDYQTAAQTFITYFNTYPRGTFTELARFHAGKSLFLDTPEPRLDQSSTYQAIQQLQMFMEYFPNSTKKQEAQDMIFALQDKLVLKELYSAKLYYNLGNYLGNNYESCVITAQNALKDYPYTDYREELSILILRARHEMAIYSVEDKKMDRYRETIDEYYAFKNEFPESKYLKEAEKIFNESQKVIKD
MSEDRSSNGQKSWLGKLTQAFVHEPKNRQELLELLREAHQNKLLDSEALAIVEGAIQVADLQVRDIMVPRSQMISIKATQTPREFLPAVIDAAHSRYPVIGESHDDVLGVLLAKDLLPLILKADGDSDDVKKLLRPATFVPESKRLNVLLREFRANHNHMAIVIDEYGGVAGLVTIEDVLEQIVGDIEDEHDVEEDSYIKPLPSGDFLVKALTPVENFNEFFDSAFSDDEFDTVGGLVMNAFGHLPKRNEITEIGAYRFRILSADSRRIHLLRVTPISRP

Soluble on expression in E. coli, soluble:
SLGTLPPELQNTCVARGKLPLLLDLDNTLLHAQAASATGCDVRLQDWIDPYGEPELYRFELPCNRKTYYMKLRPHLRTFLKKLEPFYEMSVYTNATQEYADIVIAILDGNRQLFQDRIVARDSGFRGEASENKAVRRLYEGMDKRCIVAFDDRQNIWTDLPLTHVVKAQHYDFFDSHKTELNAYYPPLSNGIEGMTAPDVLGNRQNED
MSLNKEPDPPLAESLRPQHIDEVIGQSHLLGEGKPLRLCFMGSKLHSMILWGPPGVGKTTIARLTAQAFDCEWIALSAVFSGVKDIRAAVEKAQEYLIHDKQTILFIDEIHRFNKAQQDALLPYTESGLITFIGATTENPSFEVNSALLSRAQVYVLKPLSEQELKLLFLRAHQRALSSLQFTEEAVDFLISCADGDARRLLNLLEQTKTACLTIKTAVVDVELLHNVIVQNSRRFDKGGEAFYDQISALHKSVRGSNPDAALYWLCRMLDGGVDPYYLARRIIRMSWEDIGLADPKAIQIANDAAATYERLGSPEGELALAQAVIYLSVAAKSNAGYVAFNQAMEFIKRDKSREVPIHLRNAPTQLMKKLGYGHEYRYAHDEPHGYAAGECYLPEGMPEVNWYNPVQRGLETKIAEKLAFLRQLDKDVKKEGHHHHHH
MRKTLIALMFAAALPTVAMAMPDGGPRHDGPHHRGDAPFHQLDLSRDQRQQIGKLMGEQMQQRRDITERYLSKLPATDQKAMKDELQANRDKTDSAVRKLLTADQQKKFDELQKERAAKKAEWQEFQAWKAEKGAKAQLEHHHHHH
MDDLQADDIKTSDENSAMVLLVDDQAMIGEAVRRGLAGHESIDFHFCADPHQAIAQAVQIKPTVILQDLVMPGLDGLTLVREYRSNPLTRDIPIIVLSTKEDPLIKSAAFAAGANDYLVKLPDNIELVARIRYHSRSYMTLLQRDEAYRALRVSQQQLLDTNLVLQRLMNSDGLTGLSNRRHFDEYLELEWRRATRDQAQLSLLMIDVDYFKAYNDNFGHLEGDEALRQVAKAIRNSCSRPSDLPARYGGEEFAMVLPNTSPGGARLLAEKLRQSVAGMNIPHIAPVPGSSLTVSIGVATVTPQVGQHSRQLILDADKGLYLAKNNGRNQVAAG
MLKVIRRFFTAKQRQTPAKQDVELESGRGWAGLEEWRLVAKYSVGPVEYYLYRDNSEGVRLTFKEPPEPGEAVVKEIIAGNIEPVGEGERYHAEKRMSGYGRLYPLIIDGHIEEIAFEGPGRGVSVIHSLVPGRWIDVDLKLGEDEANSLALQLARKAGRSLSLAQPLAEGLTGEGHRVAVTFSREVSRFGSSFVIRKYPEKPVTMADLVASRVLTPLQAAYLWLLVESQQFIVVSGPMGSGKTTLLQALAGLIPPFYRVITIEDTPEIRLYNRHWDSLVTRPPLPGESMVEVDLEALLRFALRRRAEYIIVGEVRGREARLLAQAAASGHGSMTTMHGDTPEGVILRLQLEPISLPPVFLSLIGAIVMLRRLPGYGGAVRRRVVSITEIEGGEAVDVFAWDPKGDLVSPDNPRDIVESSFRLREAVSRIPDLITDLEAELSERAGLLEKLAGSPPEVFHKALARFYSERYGRV
MSLQEWTKEDSLRLRKLLDSDQELNLNQDAVRQIDFGSAVGTPRMSVEKKWMLPDESLPEALPKPKVVLSLMPYKANTPYNWDPVFQKKIRMDKNTWRGDPHYEMRHQRSYSNWAHNPMAGGVRKSLEEIRASGVRFRQLSERANGMMVNSVVMDSPIPLFGGSGVYINGGTIGGLDLMAVFTKNFWDKKGKERRERTLEVLRTYGDSTTVLINRPIEQIAREGHHHHHH
AHHHHHHGSDGLTAQEFLTLVKLERGMYLSKEEKDDVERIKEKNKRVLELIKDHHKDFDVYLTGHIDFDNLLTMYEIYKELKKRGVNVYYPGLFWANWREKGEIEYKIKNNAKILLVITQTISFGTSVDVGFFIHRKINEEEAKIVFCYTGPSYEFESLKTHPASIYIDYFTRDIEDAIEKTLEFLSL
SEGSGEQPGPQPQHPGDHRIRDGDFVVLKREDVFKAVQVQRRKKVTFEKQWFYLDNVIGHSYGTAFEVTSGGSLQPKKKREEPTAETKEAGTDNRNIVDDGKSQKLTQDDIKALKDKGIKGEEIVQQLIENSTTFRDKTEFAQDKYIKKKKKKYEAIITVVKPSTRILSIMYYAREPGKINHMRYDTLAQMLTLGNIRAGNKMIVMETCAGLVLGAMMERMGGFGSIIQLYPGGGPVRAATACFGFPKSFLSGLYEFPLNKVDSLLHGTFSAKMLSSEPKDSALVEESNGTLEEKQASEQENEDSMAEAPESNHPEDQETMETISQDPEHKGPKERGSKKDYIQEKQRRQEEQRKRHLEAAALLSERNADGLIVASRFHPTPLLLSLLDFVAPSRPFVVYCQYKEPLLECYTKLRERGGVINLRLSETWLRNYQVLPDRSHPKLLMSGGGGYLLSGFTVAMDNLKADTSLKSNASTLESHETEEPAAKKRKCPESDS
MVRNRFIRKMKKNLFKSNHLSYLKSKWKVKITGQIKMDFDNLLNLEEQYYQEGFLEGQNENIKQSFLEGKQYGLQVGFQRFTLLGQMEGLCDVIESYGLHSPTLEKNIHTIRTLMKGLKMNNDDESVMEFERVLIKLKNKFRTILITLHRLVKDKRTPTVTFEVFEDVSRAIAGEIRGFVENEDIAKNKTKQNQAQSW
GPYLVIVEQPKQRGFRFRYGCEGPSHGGLPGASSEKGRKTYPTVKICNYEGPAKIEVDLVTHSDPPRAHAHSLVGKQCSELGICAVSVGPKDMTAQFNNLGVLHVTKKNMMGTMIQKLQRQRLRSRPQGLTEAEQRELEQEAKELKKVMDLSIVRLRFSAFLRDSDGSFSLPLKPVISQPIHDSKSPGASNLKISRMDKTAGSVRGGDEVYLLCDKVQKDDIEVRFYEDDENGWQAFGDFSPTDVHKQYAIVFRTPPYHKMKIERPVTVFLQLKRKRGGDVSDSKQFTYYPLV
MGHHHHHHSHMERIVMPANYVHTRTTPFWTKETAPASIWRRHLDAGTRQGVYPRLCVMQGTIRYYGYADETSPEPVETLTIEAGQFGVFPPEKWHRIEALSDDTLFNVDFYVDPKILIEG
MNFMEIGTPLFEGAKKLLWLGGGELGKEMVIEAQRMGIETVVVDRYDMAPAMHVAHRKYVVNMLDGNAIKSIIKKENPDAIITEIEAINTDALLELESEGYKVIPNAKAVKICMNRIELRKLAAEKVKVPTTQYGFAENPEEVKKICKDIGYPCIIKPEMSSSGHGHEVVYNESEVEQKFKEAITHARGKSEQVIVEEYVKIDRELTVLTYRYLDDKGVVTKTITPIEHQRPSDVYYYVESWHPSTVDKDIIERAQEYATRVVNELGGFGIFGVEIIVSGNRVLFSEVSPRPHDTGLVTMASLDINEFQIHVRSALGLPTPEVKIVSPAAAHVILANNEGWAPKFLNVEKALQIPGVQIRLFGKPSTYYKRRMGVVLATGNTVEEAKEKARKAASLVLVT
MNFHHLAYWQDKALSLAIENRLFINGEYTAAAENETFETVDPVTQAPLAKIARGKSVDIDRAMSAARGVFERGDWSLSSPAKRKAVLNKLADLMEAHAEELALLETLDTGKPIRHSLRDDIPGAARAIRWYAEAIDKVYGEVATTSSHELAMIVREPVGVIAAIVPWNFPLLLTCWKLGPALAAGNSVILKPSEKSPLSAIRLAGLAKEAGLPDGVLNVVTGFGHEAGQALSRHNDIDAIAFTGSTRTGKQLLKDAGDSNMKRVWLEAGGKSANIVFADCPDLQQAASATAAGIFYNQGQVCIAGTRLLLEESIADEFLALLKQQAQNWQPGHPLDPATTMGTLIDCAHADSVHSFIREGESKGQLLLDGRNAGLAAAIGPTIFVDVDPNASLSREEIFGPVLVVTRFTSEEQALQLANDSQYGLGAAVWTRDLSRAHRMSRRLKAGSVFVNNYNDGDMTVPFGGYKQSGNGRDKSLHALEKFTELKTIWISLEA
TNDEETIQQQILALSADKRNFLRDPPAGVQFNFDFDQMYPVALVMLQEDELLSKMRFALVPKLVKEEVFWRNYFYRVSLIKQSAQLT
